The source of these data is patent publication US20180087080A1.

In experiment [1] the target is FcγRIIIa receptor (UniProt P08637). Description: SPR (Biacore), FcγRIIIa immobilised; sample with 5.1 % afucosylation. Background: Surface plasmon resonance follows binding to a sensor surface in real time, without labels.
Experiment [2] shares this target. Description: SPR (Biacore), FcγRIIIa immobilised; sample with 9.6 % afucosylation.
Experiment [3] shares this target. The experiment in a line: SPR (Biacore), FcγRIIIa immobilised, run 2.
The target is the same in experiment [4]. The experiment in a line: SPR (Biacore), FcγRIIIa immobilised, run 1.

Sequence of UniProt P08637 (P08637 17-208 limits assumed): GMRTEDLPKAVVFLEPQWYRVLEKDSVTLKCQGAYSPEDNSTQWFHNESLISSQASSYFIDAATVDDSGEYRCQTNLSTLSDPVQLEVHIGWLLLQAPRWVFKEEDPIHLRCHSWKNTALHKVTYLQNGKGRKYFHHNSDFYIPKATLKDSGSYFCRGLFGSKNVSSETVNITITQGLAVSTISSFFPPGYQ

The Kd is the constant that tells how readily two partners part at equilibrium. A low value points to tighter binding. Turning to “Itolizumab produced from Chinese Hamster Ovary (CHO) cell line (Bmab-600) (antibody)”, the Kd in experiment [1] worked out at 328 nM; in experiment [2], 306 nM.

Take “Itolizumab produced from mouse derived NS0 cell line (T1h) (antibody)”: the Kd came out at 508 nM in experiment [3] and 372 nM in experiment [4].
